Measurements: article PMC7344962 (2020)
Numbering of substitutions follows the chain as printed.

B1: scFv S1A4 (scFv, V domains shown)
VH: QVQLQQSGAELVRPGVSVKISCKGSGYTFTDYGMHWVKQSHAKSLEWIGIISTYSGDASYNQKFKGKATMTVDKSSSTAYMELARLTSEDSAIYYCARSSTWYYFDYWGQGTTLTVSS
VL: DIQMTQTPSSLSASLGDRVTISCRASQDISNYLNWYQQKPDGTVKLLIYYTSRLHSGVPSRFSGSGSGTDYSLTISNLEPEDIATYYCQQGNTLPYTFGGGTKLEIK
B2: scFv S1C4 (scFv, V domains shown)
VH: B1 VH with S40R, H41P, A42G, K43H, S44G
VL: B1 VL
B3: scFv S1B4 (scFv, V domains shown)
VH: B1 VH with V16T, G24A, E82Q, A84S, R85S, I93V, T113L, L114V, S118A
VL: B1 VL
B4: scFv S1A0 (scFv, V domains shown)
VH: B1 VH
VL: B1 VL with M4V, P8T, P80Q, Y87F
B5: scFv S1D4 (scFv, V domains shown)
VH: QVQLQQSGAELVRPGTSVKISCKASGYTFTDYGMHWVKQRPGHGLEWIGIISTYSGDASYNQKFKGKATMTVDKSSSTAYMQLSSLTSEDSAVYYCARSSTWYYFDYWGQGTLVTVSA
VL: B1 VL

Biological target: T1, major surface antigen 1 (SAG1) of Toxoplasma gondii (Toxoplasma gondii, UniProt P13664 48-336)
T1 chain: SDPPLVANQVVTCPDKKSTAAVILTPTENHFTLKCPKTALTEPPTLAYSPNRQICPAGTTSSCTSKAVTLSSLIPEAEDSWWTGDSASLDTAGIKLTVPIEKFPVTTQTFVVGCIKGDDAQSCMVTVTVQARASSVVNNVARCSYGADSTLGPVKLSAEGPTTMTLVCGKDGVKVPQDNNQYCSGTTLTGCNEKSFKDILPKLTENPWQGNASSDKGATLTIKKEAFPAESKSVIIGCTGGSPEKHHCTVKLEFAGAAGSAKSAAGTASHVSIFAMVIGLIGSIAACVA
Assay: SPR
B1 gave a Kd of 236 nM. Binder B2 has a Kd of 61 nM. B3 was tested, and the Kd was 323 nM.

Biological target: T1, major surface antigen 1 (SAG1) of …
Assay: SPR; two-state fit (kd1)
In the case of B4, the koff is reported as 0.0137 s⁻¹. With B1 the koff was 0.0142 s⁻¹. For B5, the koff was 0.0183 s⁻¹. B2 was tested, and the koff was 0.0158 s⁻¹. Binder B3 has a koff of 0.0255 s⁻¹.

Biological target: T1, major surface antigen 1 (SAG1) of …
Assay: SPR
Remark: another data set of the same source
Work on B5 yielded a Kd of 400 nM.

Biological target: T1, major surface antigen 1 (SAG1) of …
Assay: SPR; two-state fit (KDapp)
B4 was tested, and the Kd was 181 nM. Work on B1 yielded a Kd of 117 nM. Binder B5 has a Kd of 360 nM. In the case of B2, the Kd is reported as 59 nM. Binder B3 has a Kd of 329 nM.

Biological target: T1, major surface antigen 1 (SAG1) of …
Assay: SPR; Langmuir 1:1 fit
For B1, the Kd was 236 nM. B5 showed a Kd of 400 nM. B2 was tested, and the Kd was 61 nM. Binder B3 has a Kd of 323 nM.
